T1: TrnD (Bacillus thuringiensis, fluorescently labeled (in the MST of Fig. 5D only))
T1 chain: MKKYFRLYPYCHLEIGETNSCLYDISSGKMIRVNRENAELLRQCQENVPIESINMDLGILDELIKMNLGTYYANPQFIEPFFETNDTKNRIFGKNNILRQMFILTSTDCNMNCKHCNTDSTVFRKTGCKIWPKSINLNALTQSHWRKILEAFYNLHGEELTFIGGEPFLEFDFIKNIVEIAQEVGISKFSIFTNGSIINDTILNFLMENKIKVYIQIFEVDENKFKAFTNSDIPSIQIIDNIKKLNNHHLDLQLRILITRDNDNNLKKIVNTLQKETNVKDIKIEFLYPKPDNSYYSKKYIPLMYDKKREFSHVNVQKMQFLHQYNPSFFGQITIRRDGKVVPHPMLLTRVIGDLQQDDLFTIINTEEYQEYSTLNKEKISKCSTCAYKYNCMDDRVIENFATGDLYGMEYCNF

B1: TrnC (enzyme)
chain: MSKKRLSMMPFKTDKFSYALDGNTGRVIVADKPTLYIISHFHKFEKEELLKKTKGKFAELHQDYLTTYNYVSSLINMGMFYLSEKEDSDSPIDSKELAINSNQSQLILILTEKCNLRCEYCIYNDKYPKEMGYSDEEMDFETAKKAVDMYYELHMERVKRGHKRFPVITMYGGEPLLKFDLIKKVMEYAKGLMPDTLFYTTTNGTLLSEKMMDYFINNRIIITFSIDGFKENHDRNRVFVNGMPTFERAFKNIKRLQEKKKEQNIEQIISFNCCFDQYTDVYKVAKFFEEHYDLFNPFFVLYNQINPFDTLYFDWCDEQVKTGKWNFDKNNFKNAMQKIEHELYEAETCDDHFQQVAGPLVMKDFVLSIRNKDGQQQITRNSCIPTSKIAVSPDGTLTLCEKMCKKYPIGTVEKGLDWKAVDGVTEKLVRHFNSDSCKYCPIRTMCEACFMFLDENGRIKPSFCKSKKMAVKKNLESYFAKKEKGFDVMKVYNHTSDLDSVKEMVK
modifications: fluorescently labeled with RED-NHS (in the MST experiments where TrnC is the labelled partner)

Key:
Assay in all cases: MST
[1] = target: B1
[2] = target: T1, TrnD
[3] = target: E79A mutant of TrnD (Bacillus thuringiensis)

Binder	Kd [1]	Kd [2]	Kd [3]
MEVLNKQNVNIIPESEEVGGWVACVGACGTVCLASGGVGTEFAAASYFL [TrnB]	2470 nM	2110 nM	
MEVMNNALITKVDEEIGGNAACVIGCIGSCVISEGIGSLVGTAFTLG [TrnA]	5410 nM	4430 nM	
B1			590 nM
